# Assay results reported in US20210018513A1.
# Molecular target: synthetic peptide …[pT]ISDSAPSR (human)
# Assay: bead array incubated with the synthetic peptide in digested BSA; bound peptide by MS, peptide left in the sample by dot blot
# Chain of synthetic peptide …[pT]ISDSAPSR (human) (peptide, as listed by the source): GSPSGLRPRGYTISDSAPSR
substance,measurement,value
"Rabbit monoclonal antibody recognizing phosphorylated Thr1462 in human Tuberin (TSC2), Cell Signaling Technology catalog number 3617 (5B12)","binding capacity of a bead array of 5 identical reactive sites, each with 5% of the #3617 antibody",< 15 % of 1 pmol
